Experimental data from article PMC5737841.

What was measured:
Experiment in all cases: UV crosslinking
SisCsx1-M3 = target: T1, SisCsx1-M3 (Sulfolobus islandicus Rey15A, UniProt F0NE21 1-454, D50L;S51L)
T1 sequence: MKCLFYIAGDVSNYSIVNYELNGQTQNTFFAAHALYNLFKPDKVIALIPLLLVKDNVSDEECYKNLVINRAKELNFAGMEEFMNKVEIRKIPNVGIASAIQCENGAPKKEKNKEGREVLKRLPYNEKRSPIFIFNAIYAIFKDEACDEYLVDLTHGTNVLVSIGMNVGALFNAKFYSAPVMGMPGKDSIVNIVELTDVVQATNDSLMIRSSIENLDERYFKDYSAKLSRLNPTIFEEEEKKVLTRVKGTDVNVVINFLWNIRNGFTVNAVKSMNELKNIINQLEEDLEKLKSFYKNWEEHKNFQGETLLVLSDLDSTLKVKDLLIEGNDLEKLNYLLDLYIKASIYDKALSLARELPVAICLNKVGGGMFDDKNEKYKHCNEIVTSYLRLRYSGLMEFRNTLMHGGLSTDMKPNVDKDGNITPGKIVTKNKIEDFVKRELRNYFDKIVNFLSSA

SisCsx1-M2 = target: T2, SisCsx1-M2 (Sulfolobus islandicus Rey15A, UniProt F0NE21 1-454, G95L;A97L;A99L)
T2 sequence: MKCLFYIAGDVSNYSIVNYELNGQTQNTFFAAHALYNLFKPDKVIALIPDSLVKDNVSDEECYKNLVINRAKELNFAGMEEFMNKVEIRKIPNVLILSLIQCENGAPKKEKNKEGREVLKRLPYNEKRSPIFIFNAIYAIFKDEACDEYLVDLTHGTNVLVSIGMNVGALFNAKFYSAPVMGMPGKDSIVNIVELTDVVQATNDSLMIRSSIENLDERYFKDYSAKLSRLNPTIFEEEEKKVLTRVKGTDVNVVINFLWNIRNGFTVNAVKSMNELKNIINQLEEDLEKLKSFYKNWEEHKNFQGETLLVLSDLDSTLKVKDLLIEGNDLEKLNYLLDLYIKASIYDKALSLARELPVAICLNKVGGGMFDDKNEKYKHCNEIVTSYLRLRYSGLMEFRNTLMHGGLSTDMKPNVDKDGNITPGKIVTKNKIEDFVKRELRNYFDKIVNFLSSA

SisCsx1-M6 = target: T3, SisCsx1-M6 (Sulfolobus islandicus Rey15A, UniProt F0NE21 1-454, H155L)
T3 sequence: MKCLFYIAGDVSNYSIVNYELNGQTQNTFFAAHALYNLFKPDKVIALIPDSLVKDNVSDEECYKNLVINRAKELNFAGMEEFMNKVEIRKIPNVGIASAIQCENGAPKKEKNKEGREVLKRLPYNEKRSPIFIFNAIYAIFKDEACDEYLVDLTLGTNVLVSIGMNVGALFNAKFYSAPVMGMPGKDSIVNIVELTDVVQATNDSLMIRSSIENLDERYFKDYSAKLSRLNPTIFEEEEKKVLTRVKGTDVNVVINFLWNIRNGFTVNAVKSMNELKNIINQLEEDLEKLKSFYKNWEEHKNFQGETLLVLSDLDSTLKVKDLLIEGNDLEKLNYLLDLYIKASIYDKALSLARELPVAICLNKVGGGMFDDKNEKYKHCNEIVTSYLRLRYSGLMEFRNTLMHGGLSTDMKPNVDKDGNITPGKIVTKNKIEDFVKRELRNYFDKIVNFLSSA

Measured: binding result

CGCAAAAAAA (ssRNA) [S3A7]
no binding: SisCsx1-M3 | SisCsx1-M2 | SisCsx1-M6
